Reference: US20220119534A1 (DRAGONFLY THERAPEUTICS, published 2022)
Where “and” joins values, the source holds several entries; their conditions need not be identical. Identical values can stand only once.

Key:
[1] = target: T1, Human CLEC12A expressed on cells (Ba/F3-hCLEC12A, PL21, HL60) (human, UniProt Q5QGZ9 1-265); assay: cell-based or functional assay
T1 sequence: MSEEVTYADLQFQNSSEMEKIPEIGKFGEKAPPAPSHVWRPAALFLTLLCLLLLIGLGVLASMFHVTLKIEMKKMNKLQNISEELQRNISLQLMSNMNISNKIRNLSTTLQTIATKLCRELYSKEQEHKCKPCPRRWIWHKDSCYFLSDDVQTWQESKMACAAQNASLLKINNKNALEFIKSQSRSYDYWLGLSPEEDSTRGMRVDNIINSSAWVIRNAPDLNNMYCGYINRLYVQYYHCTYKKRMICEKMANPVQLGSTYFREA

[2] = target: T2, Human CD16a F158 (FcγRIIIa F158) (human, UniProt P08637 17-208, biotinylated); assay: SPR 25C, steady-state fit, average
T2 construct: Bought recombinant receptor; also called hFcγRIIIa F158
T2 sequence (P08637 17-208 limits assumed): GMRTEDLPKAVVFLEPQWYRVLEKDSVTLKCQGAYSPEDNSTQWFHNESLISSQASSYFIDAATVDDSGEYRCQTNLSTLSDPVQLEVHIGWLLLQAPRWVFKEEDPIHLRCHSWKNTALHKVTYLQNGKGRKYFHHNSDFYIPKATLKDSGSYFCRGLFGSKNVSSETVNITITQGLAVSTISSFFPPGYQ

[3] = target: T3, Human CLEC12A-His (recombinant, K244 WT) (human, UniProt Q5QGZ9 65-265); assay: SPR, two-state fit; after low pH hold
T3 construct: Made in house (Dragonfly Tx); also called hCLEC12A; hCLEC12A-His; not shown: His tag
T3 sequence: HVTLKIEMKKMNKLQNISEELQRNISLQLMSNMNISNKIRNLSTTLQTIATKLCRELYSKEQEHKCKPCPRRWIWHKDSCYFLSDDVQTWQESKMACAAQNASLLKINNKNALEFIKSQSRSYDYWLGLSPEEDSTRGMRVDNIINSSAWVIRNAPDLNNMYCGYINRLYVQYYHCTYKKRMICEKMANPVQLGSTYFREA

[4] = target: T3, Human CLEC12A-His (recombinant, K244 WT); assay: SPR 37C, AB0089 captured on anti-hFc, two-state fit
Procedure: (§1) Briefly, human Fc specific antibodies were covalently immobilized at a density ˜8000-10000 resonance units (RU) on carboxy methyl dextran matrix of a CM5 biosensor chip via amine-coupling chemistry to create an anti-hFc IgG chip. […] Association was monitored for 300 seconds and dissociation was monitored for 600 seconds. Surfaces were regenerated between cycles with three pulses of 10 mM glycine-HCl, pH 1.7 injected for 20 seconds at 100 μl/min. HBS-EP+ (1×) with 0.1 mg/ml BSA was used as running buffer throughout the experiment. Experiments were performed at physiological temperature of 37° C. To obtain kinetic rate constants and overall binding affinity, double-referenced data were fit to a two-state kinetic model using Biacore 8K Insight Evaluation software (Cytiva).

Cynomolgus CD64 (FcγRI) = target: T4, Cynomolgus CD64 (FcγRI) (cynomolgus monkey, UniProt A0A2K5U901 33-309, Biotinylated and captured on the CAP chip (p-1094); the biotin site is not stated.); assay: SPR 25C, biotinylated cyno CD64 captured on CAP chip
T4 construct: Bought recombinant receptor; also called cFcγRI; Cynomolgus FcγRI; not shown: The vendor's biotinylation and purification tag (ACRO FCA-C82E8)
T4 sequence (A0A2K5U901 entry or part of it limits assumed): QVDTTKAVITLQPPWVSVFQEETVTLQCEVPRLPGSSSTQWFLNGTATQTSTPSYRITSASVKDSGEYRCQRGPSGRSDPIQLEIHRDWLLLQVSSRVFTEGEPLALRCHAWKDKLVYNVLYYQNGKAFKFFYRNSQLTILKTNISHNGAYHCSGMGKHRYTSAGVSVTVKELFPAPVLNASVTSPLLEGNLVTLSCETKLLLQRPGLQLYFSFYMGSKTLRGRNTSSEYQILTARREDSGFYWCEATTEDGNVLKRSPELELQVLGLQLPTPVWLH

[5] = target: T3, Human CLEC12A-His (recombinant, K244 WT); assay: SPR 37C, AB0089 captured on anti-hFc, two-state fit (ka1)
Procedure: as §1

Kd [2]: 1270 nM
Kd [3]: 0.7 nM
Kd [4]: 0.69 nM and 0.75 nM and 0.78 nM
Kd (Cynomolgus CD64 (FcγRI)): 1.5 nM and 1.8 nM and 1.2 nM
koff (Cynomolgus CD64 (FcγRI)): 8.1e-05 s⁻¹ and 9.5e-05 s⁻¹ and 6.6e-05 s⁻¹
kon (Cynomolgus CD64 (FcγRI)): 55000 M⁻¹ s⁻¹ and 54000 M⁻¹ s⁻¹
B1: AB0089 TriNKET (bispecific antibody, human IgG1, kappa)
chain: QLQLQESGPGLVKPSETLSLTCTVSGFSLTNYGLHWIRQPPGKCLEWIGVIWVGGATDYNPSLKSRVTISVDTSKNQFSLKLSSVQAADTAVYYCAKGDYGDTLDYWGQGTLVTVSSGGGGSGGGGSGGGGSGGGGSDIQMTQSPSSLSASVGDRVTITCHASQNINFWLSWYQQKPGKAPKLLIYEASNLHTGVPSRFSGSGSGTDFTLTISSLQPEDFATYYCQQSHSYPLTFGCGTKLEIKGSDKTHTCPPCPAPELLGGPSVFLFPPKPKDTLMISRTPEVTCVVVDVSHEDPEVKFNWYVDGVEVHNAKTKPREEQYNSTYRVVSVLTVLHQDWLNGKEYKCKVSNKALPAPIEKTISKAKGQPREPRVYTLPPCRDELTKNQVSLTCLVKGFYPSDIAVEWESNGQPENNYKTTPPVLVSDGSFTLYSKLTVDKSRWQQGNVFSCSVMHEALHNHYTQKSLSLSPG
heavy: EVQLVESGGGLVKPGGSLRLSCAASGFTFSSYSMNWVRQAPGKGLEWVSSISSSSSYIYYADSVKGRFTISRDNAKNSLYLQMNSLRAEDTAVYYCARGAPIGAAAGWFDPWGQGTLVTVSSASTKGPSVFPLAPSSKSTSGGTAALGCLVKDYFPEPVTVSWNSGALTSGVHTFPAVLQSSGLYSLSSVVTVPSSSLGTQTYICNVNHKPSNTKVDKKVEPKSCDKTHTCPPCPAPELLGGPSVFLFPPKPKDTLMISRTPEVTCVVVDVSHEDPEVKFNWYVDGVEVHNAKTKPREEQYNSTYRVVSVLTVLHQDWLNGKEYKCKVSNKALPAPIEKTISKAKGQPREPQVCTLPPSRDELTENQVSLTCLVKGFYPSDIAVEWESNGQPENNYKTTPPVLDSDGSFFLYSWLTVDKSRWQQGNVFSCSVMHEALHNHYTQKSLSLSPG
light: DIQMTQSPSSVSASVGDRVTITCRASQGISSWLAWYQQKPGKAPKLLIYAASSLQSGVPSRFSGSGSGTDFTLTISSLQPEDFATYYCQQGVSFPRTFGGGTKVEIKRTVAAPSVFIFPPSDEQLKSGTASVVCLLNNFYPREAKVQWKVDNALQSGNSQESVTEQDSKDSTYSLSSTLTLSKADYEKHKVYACEVTHQGLSSPVTKSFNRGEC
notes: F3' format heterodimer of three chains; human IgG1 Fc with EW-RVT and Y349C/S354C mutations; also called AB0089 Lot AB0089-002; CLEC12A TriNKET AB0089
EC50, primary NK mediated cytotoxic killing of PL21 cells [1]: 0.35 nM
kon [5]: 1.1e+07 M⁻¹ s⁻¹ (2×) and 1e+07 M⁻¹ s⁻¹ (2×)
